{"source": "patent US20110167521", "assay_in_all_cases": "cell_activity", "key": {"[1]": {"test_system": "ZFP 14025-VP16 (artificial)", "settings": "callus, control 2.90; 27% up-regulation p=0.05; more than 3-fold in some T0 events"}, "[2]": {"test_system": "ZFP 13722-KRAB1 (artificial)", "settings": "homozygous T2 immature seed, event 5212-4; no apparent effect in heterozygous"}, "[3]": {"test_system": "ZFP 13722-NtERF3 (artificial)", "settings": "homozygous T2 immature seed, event 5227-12, p=0.025; no apparent effect in heterozygous"}}, "data": [{"sequence": "CGTGGAGACGTCAAAAGA (double strand) [KASII 14025 target]", "values": [{"measurement": "activity (KasII/tubulin mRNA ratio)", "setting": "[1]", "result": 3.69}]}, {"sequence": "AAGGAGAATTTTAGGGTTTGGGGAGACT (double strand) [FatB5 13722 target]", "values": [{"measurement": "activity (% FatB5 mRNA reduction)", "setting": "[2]", "result": 15}, {"measurement": "activity (% FatB5 mRNA reduction)", "setting": "[3]", "result": 21}]}]}
